Assay: soluble fraction after stress (log2 fold change); higher = more stays soluble; pooled small domains, quantitative proteomics
Conditions: stress: pH 4
Summary of the method: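 Aggregation propensity is read out as the fold change in how much of each domain remains soluble after acid stress. The custom small-domain libraries were pooled, held at pH 4 and analysed with high-throughput quantitative proteomics. On the log2 scale used, higher values mean more of the domain stayed soluble.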

Sequence | soluble fraction (log2)
HMKKSTLLLFFLKELLEGKKISLKSFALENDINIRTAQRYIEDIEEAFPDNLLKENDFYSFV | -1.05
HMTDRINIGDVVTIISKDREDSQIVYMRYHKGKLSILGELILNKTKNDTVDFKGRTYDIATIEKS | -0.228
HMQEGPGLVPDFRGQTMREVLRGGQSLGVRVAVDGTGLAVAQTPEPGSPLNKVSQVTVSFRPP | 0.22
HMIDLGKSRTWHSENGRAIEARVINISEEQQTVEMQRVDGLKFELSWNQLSKADQTLLAEAAKKTALVA | 0.276
HMYDAEAINKFFDIENWDFGETFYFQELSAYIMNQLSPKLVTILIVPRQTTQAFGSLFEIKSEPDEIFAS | -0.0578
HMASITLDQAKEIALTHAGQTADAVWFEKAEQDYDDGILVYELEFAAKGTEYEYEIDAQTGAIREYKWDD | 0.0206
HMATAATGIINNNYVNVRSGPATTYNIVGRLDQGSSIEILGSKNDWYQIKTKQLNGWVKNDFINLQK | 0.14
HMQLVGSSAAVLIPAPAGGLGKIRLEFRGQTIDLIAKATDGGALIEGGAVTIVDVRDGQADVSV | -0.329
HMARTIINLPLRNSVDESYNTTVNILQANGFKEVSYNGETVWKKGTGLLTAMQYIKIEFTDTTLVVSGWVQ | -0.11
HMGGYVTGTIDLTKFGYAFVITEESEDDVFVAARNLNTALHGDQVKVLLYARHKGKRPEGEVVEIISRSRA | -1.4
HMESRTQVYDFYKDLFREKRRPLRAEEMLSALKSQRGIVGVNQYQIIEQHGIVRLSGSGRSALYWDTDLGS | -0.746
HMAPVLTATVNTTSGKLNMRAAASATSAKLTSIPRGATVTVLEKGTTWSRISYGGYTGYVMTQYLKFD | -0.575
HMEVPTGNHIRRWRKSLDITQVKLSSLSGVAQSIIAKIENETVDPRVSTLRKLVEALSRFENP | -0.358
HMSAHDLQVVLRWIGTDEPMTDQRYRITTEDGRTFEGRTDDAGLTERVASTIPFGRYSIEALD | -1
HMGPEQLIGKTGIAASELAPRGEVKIEGQIWRAETVGDHVKQGEPVEVVSREGLILRVKPKHPQTRG | -0.0209
HMSAPAMTLDSIRSLLNDRDPWVVTQTVEWLVGLGPQVKTILETLTLESSDAARQAQNALDRINVRNYP | -1.08
HMGLSENALAMLKQQETVLIRLIDGRGNQGALASINLIVSRILNLDIVDRTPEDLLRVIASEGEQND | -1.54
HMAFRWQQIADTITSMIANGSYPRGSRLPTEAALADSFGVNRHTVRRAVAALRDTGLVQPRQGAGVFVIG | -0.103
HMIQQFTYAFAKDKGVVVLPGRDVLTLGMRAGADPLVLLEARRALGSSFELEPLDRDTYERTLADVFTADA | -1.41
HMFRDFSETLLRKLQAAGGFLPFTDKTDAEAIAEHFQVSKKTFKRAVGTLYKQRRILIDDEGITLIG | 0.252
HMVNIAVMTVSDTRTEADDKSGSLLVSKIEGDGHVLADRAIITDDVPRIIAKLKEWIESPQVDVVVT | -0.606
HMAPTADSVPFVIRSVVGGAQPFIVLEDGSKLLVGGVYRKYRLVAVENTRIIFEGPRTAIVT | -0.681
HMGPFYFDQDGKAYSGLLNRNGEILYFADPFNAAVKNTTKTIDGKTYTFNQNGRATSIDGIPLEPP | -0.17
HMGVLDFSAQLLKHLEMNGGQTPLGDKSPAEEIYAVFGVSKKVFKKAVGDLYRKRLIEISSNGIRMTS | 0.336
HMGVEALTPRQREVLALMAQGRSNGWIAAELGLSEKAIVQHTSNIYDMLGLAVDADDHRRVLAVIHYLT | -0.943

Sequence | soluble fraction (log2)
HMQENDLGAVEKIVDDVLHDPKNAQAVADFKAGSEKVLGFLTGQVMKASRGKANPSVVQEVLRQKLKN | -0.0461
HMDPDAIVSKGQLGALNNAIGRFIAQGGSQTVVDKGIAKRNPNAKKPADLTNSQAESLEAAILKILNG | 0.121
HMNLSNVVIRKVQEMILSGELQEGDKLPPEREMTQRLGIGRPALREGLKSLEMLGLVERRHGLGNFIINKV | -0.475
HMKNYYEVLGVPRDAAAPDIKRAFRKLAKQFHPDHNPGDAKAEERFKLVSQAYDVLGDEEKRKLYDQFGE | 0.254
HMNLLGERIREIRMEMGLTAKELAQRASVTPGYISQIEHDQIKPSMNVMMRIAEVLNVPMAALLM | ≥ 0.43
HMAQVVMPNVVGKTEKDATATLEGKNLKVNVEYNLDATSDDGIVKEQSIKSGENIDEGTEITLKVNKV | -1.69
HMSTSAAELLRTARQQAGMSQSAVAELAKTSQSAIAMYEAGNREPSLPVLQRLLAATGHQLSLSVLP | 0.00437
HMRLTIAQLSEKTGVPERTIRYYIDRGLVPSAHGERRGAWYDTVHLEPLLRIQQWREAGLSLEAIADLLR | -1.17
HMLPSDLDEGNRRRQLIEGAARLFRAKGFDGTSTRDIAAAAGMRSGSPFYHFDSKNALLYVVVQEGM | -0.115
HMAIADQPISAEHFDKLRQVLNSNTQETIASAKQHWASISNNAEFTNENVTRTLLEEMLAFIKSAS | -0.887
HMGSQSYVAIVNERFKESDIVELGGSVGSRTGDIITLHFRNSSPNELKNITGIVYLQVANKVTPKL | -0.875
HMATINGIEKYLSSGLIPGIGPHTAKKLVEKFGLDTLDIMQYNPDRLTEVEGIGDKKAAKISEAFQEQK | -0.191
HMNKKEQYQNIISNFLEKMSEEDRLIFNMHFFKSINISQIARSIDREGYYVKTKIENLLADLKSLMIGNNL | -1.17
HMKTELAYDFHSRIRDARIREGLSQVDLAKRMNEKIAVIQKAENGIRPTDSLIAKFSKALSVELYVE | -0.604
HMKFNRPMSEILQEWENKLGTTSDAELAGLIGVVTMTINRWRKNETKPDLSALNRYDRIVNLVVNNIKQL | -0.321
HMSAPRRGETTAASLNLRAGPATDADILAQLPERTPLRVLQEDGEWLRVETHGNEGFVHRQFVAIPGDEP | -0.347
HMLRPEEMIYHEMLDAILDRRLEPGMKLVEEDLAKTFGVSRARIRATFLQLAHDKLINLVPNRGAFVAEP | -0.561
HMWSLLVILQLREGGQRFSQLQRAIPDISQRMLTQTLRKLERDGLVSRKVTPSTPPRVDYAITELGH | -0.556
HMKTEIGQAMRKLRKAKKMTQDTLAEKLGVAPANISRYEKGQQGIEVDKLPTLADALGVSVPEFFAIASG | -0.142
HMDTYKGFIFEVVDKYFSPTLNQKIGQAKNKQGIVLLQTKPSFTQDPKVLIEELKLIIDRDNLKA | -0.362
HMVPAMGSLTLIKGGVNLRNAPGGLTIAQLDRGLVLSYTKFVQKDGYTWYLVNSPKGTGYVRSDVVQLGS | -0.3
HMQTMNKTNISNFEKYLNSGDVSEVIVVRNKSSVRVTLTPEALRSSEHQAVVGKNILGQENIKGPHYQFEV | 0.138
HMTSPELIELGERIRKRRQEMNLSQEALAEKAGISINTVSRVEGGQTAMSIEIFRKMIEILETDANGL | -0.804
HMQIIGEQNQKDFIALFGAILRMRNLLLSFDEFKGNELISERDLQDYLGRYQDLRDEWRNKRRER | -0.654
HMSLSVEESYKLLDISPSAGDEEITKKFRLLALKYHPDKNRSKIEWANNIMSRLNQAYSVIMSSRFESNAE | 0.211

Sequence | soluble fraction (log2)
HMQEERLTFDTLLGISGIGPRLALAVLSRFTPGSLAAAVDAGDTKAFSAVPGVGNRTASRIILELKGKL | -0.238
HMNNIGENIKKYRTKQGLSQEDFAKKSGVKYTTLTKIESGVIKKPSVLVMAKIAKALGVNIEELI | ≥ 0.43
HMATHGRRAVIELREKIVSGELPGGTRLFEVSLAETLDISRTPVREALSRLAEEGLLDRLPNGGFVVRR | -1.39
HMLLSFYGTYGNVKLTGKELEDLQKEFPFDYQARIDRLSAYMESSGRKYHSHFATIRSWAQDDAKKN | 0.173
HMVTPPMVVVDVQGEVKTPGVYHLPTNSRVNDAIKAAGGPKQSADLSYINQARMVKDGEQIYVEKKL | 0.0679
HMDTAEQNWRLRGKLVTLGLNARQIRMALASHAPRYLEDNIAVVERDLAAGKVRNLPAYLLAALREDYRP | -0.147
HMSIASASVKEKIRDIVSSEPPQKPFSDAKIAEILAEDGIAIARRTVAKYREEIGIPTKSLRKR | 0.292
HMDTEVVMINVVGMNIDKAKNSLNHKNILYKISYQDVSEGENNVVLKQSISSNTKIKKGQVVSLVVGKLN | -0.0691
HMGSAKAQLYDLMNAHQVTRNQIQDIVAEKGYFPAGTPIENYPDDFVKGVLVGAWDQVHKAILDKEI | -0.437
HMIGILSDREAEILALLDEGLTNKAIGRRLNLAEPTVKFHLKNLYAKLGVGRRQLAVNVAKGSGLLNSD | -0.167
HMNWQLITDPKELRELVQKTIADNEAGTSRLREGDMGPLEFLTGIIMKKTRGLADPTMVKALLKEELNI | 0.0177
HMFDLENIRLTLARRLNVAAHLRPKYVAGFTLLLKQNFPEQNAEDLLNRLEHNQWLKVNQREIEYSPRLLM | -1.23
HMDVFPDESLKAWLIEMGFKLDQKKMNVFTVLRRMLLQTAPSVKEFRILEIVLQQSRRKLKELNDLKKS | -0.36
HMDPTLFRLNILEGLGLEKKNLTSEEQEQLRFLYEHFSMKEILMTIDYIKKLNLEKSIVNLYRLMQHP | -0.581
HMSPLPDRESLGAIEKLISLLGSSEWTVREKATRELGAFGYLARPVLQRELATSGDPEVSRRLERILSNL | -0.00724
HMQSSTAISFNQFQKSWLSNNIKSFQLGEDKMTVRGSLKNGTQYETIVPSERLFQFIGQHPKDGQVQEMY | ≥ 0.43
HMHDPRLPLPGTLLAREFQGRDIVVKVLDNGFEFDGRRYKSLSAIAQEVTGSKWNGFLFFGI | -0.0393
HMVTTDPIADMLTRIRNASSQKHKSVDVPASKEKLAIAQILFEEGYIKSFEEIKEENNQGVIRITLKYTEK | -0.0598
HMIHTYVETRKVGNNDGLIRVDNKYYRVPQHLVGMKVQIQIDEATISVLQGGVMVATLDKTADVFNPQA | -1.74
HMPGTAAQARQLKAWLKENGEKPGAALPALQKAQEIYGYVPREVQQLIADALHKPLTEIYGVSTFYSQFNL | -0.326
HMELPVNSIRVPDVVGLSLREAMQAMTDAGVPWQSVQAKGVGFVSRQSPEAGTVTQLRRVRLELKLF | -0.00108
HMAEEPLRIWTDLQGRSIEASFIKFSGNNIVIKMKSGRDYEVARSLFSPGDQKYLSDLKKSTPE | -0.0706
HMAIPEVDPAKQGVSATQLAALDALAHRNAGEGRVAGMVNVVIRNGEIVYYKATGPRHIDGGAPLKSTDLF | 0.0394
HMTESSTYFEKIGTEISQFKSIPKNIDVIIIEKLIYSGIIKKVDNEENSRVYYILTRKGRYFWKRYVLS | -0.0659
HMEDIEEVIVEIDTVLRTHFDRGRTEVLFAEIETAGGRPFMTYLALLFMAHRGSVRLQQDDLFGDLWVKDP | -0.959
